Laboratory results: the domain aggregation screens of Martell et al. (2025)

Test: soluble fraction after stress (log2 fold change); higher = more stays soluble; pooled small domains, quantitative proteomics
Conditions: stress: 75 degC
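Further: 20 min heating vs room temperature control held 20 min.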

HMTNIDRLIGQTAIVKETINNKKEQGVVRINGMDWTARTEEIDEVILKGKPVEILDIQGIKLIVRKK
soluble fraction (log2): -0.545

HMTNIELYQRLLNLGFTPAQAKILLVQYDETRLTDNLNYVDFKKQQGNIENLPAYTTTIIKKDVRL
soluble fraction (log2): -1.14

HMTNIQFINLKMTDNHPWIHQYIKDIILPPQTRIVMIKRNDIKTIPKGERRIEKDDELILSAFESQT
soluble fraction (log2): -2.06

HMTNKKIILEIFQNSDKPLIVEEISKKMFEKTGKKMILSTIYRNLKNMEDVGILKKIYNEDGSYMYIF
soluble fraction (log2): -1.02

HMTNKQEYAYQWLKSSIIENKIKPSTLLVERHLSEMLHISRTPVRTALMRLADEGFVVISPGRGMVVA
soluble fraction (log2): -2.32

HMTNQEFNAAFKPFLDYFPTTEMTKEKINIYYLALSDLSKEQLGSAFISMVKNRVYKNFPQVAEIRQYATN
soluble fraction (log2): -0.803

HMTNTDYPGKVVPVDPDGKTLKPDGDASYNDKPGTKVKTPTVPGYTAEVPNVEVPVGGGDIKVTYHKKPV
soluble fraction (log2): -0.0351

HMTNVYSLIGKRGIVVEDIDWQKGTGQVKIDGELWSVKTNEQINISKGTEVEVENIEGVKVFVKPI
soluble fraction (log2): -0.121

HMTNYGTVRPGARGQAVTALQQALIRHGYKLTADGIYGRATRQAVRAFQQKHKLKVDGIVGSKTWALLLAD
soluble fraction (log2): -2.13

HMTPDGNATVWSANGYGVRLRTGPGKGYAIIGVYSVGTTVKVLERGPAGGWDHIQVGSRVGYMMNEFLHYY
soluble fraction (log2): -3.16

HMTPDLSEFKERLRQILPGEPIEVRTANDGIVLSGTVTSIAALDRALDLAERYAPDKVSNLLSVG
soluble fraction (log2): 0.149

HMTPELTAEEREVLSLLGDEPRTLAELIAASGRDYAALSVLLMGLELSQAVRQLPGNRYERF
soluble fraction (log2): -0.84

HMTPGPFLVYITGAVERPNVLVTLDYGSRVIDALNAAGGSRIDANLDLVNLAQRLVDGDQIHVPTLR
soluble fraction (log2): -1.17

HMTPGPYETLKPAPLGSYIEPKIGFATAIEIARKEAVQLGIKTEAGGIWYGGDFPFYNVSFFDPDD
soluble fraction (log2): -0.842

HMTPKVTVPDVTGQTFSSAKQILESLGFTVKQQGSTDETDQVIDQNPTSGEADKGATITLTTKSS
soluble fraction (log2): 0.0908

HMTPPAQQPHEGLPTDETATDAKTLVQKSRWWLEEEQRQREAGNTAYAERIRLALIQLLYRAERA
soluble fraction (log2): -0.713

HMTPQNAAAVLRYLSSGAIKGVGPSTAQRIVEKFGAESLDIIQNKPEELATIRGISLSKALAVSEEYNKQY
soluble fraction (log2): -0.289

HMTPTFSNQDLIKAGLAGSPVAKRRRERLGELLGIGYGNAKQLLKRLDLFAIDRPTFERAVAQLDQEGK
soluble fraction (log2): -0.465

HMTPVSQIATKDIEEKIDSLSDEYKDPFILHFKGFKYKEIADQLDIPIGTVKSRIFIARKKLIDLLPDY
soluble fraction (log2): 0.0524

HMTQEHDESVNLGKRLLDQALSRFGTSYRQLKKSEIKRILQSSGASTFKYILHQIGLGNRVPLAIANLIV
soluble fraction (log2): -0.0539

HMTQEMPAEVKKKADAFNNAMDEENYTEAKAILAELEQNTAPSYPLLLQMQTRYAFETASWE
soluble fraction (log2): 0.00338

HMTQFSASSERAGAGGAYRTTLRAMEQNGDLLQISILLPDAVTAKHAATVWPERAQAIYTAILSELLK
soluble fraction (log2): -1.71

HMTQGIDQISFSQFLDKVQSGEVTDVRISGSDITGTLKTGGKFETVAGNYEKIWDLLRENKVVFVVDSP
soluble fraction (log2): 0.332

HMTQNSAITNRVLYMQRTLRQYGYAVPESGNFDRTTRAHAAEFLYNATGLPVRENQSVQEFYRAFQRVQG
soluble fraction (log2): -1.77

HMTQRRLQSELDSIPGVGAGTRTKLLRTLGSVDAVLRASEAELLAAGANRRQVASIQAHAAAVER
soluble fraction (log2): -0.0213

HMTQSQSLQSQFEQLEKAYQDNLHLLSPKQKLIIQEAGKIIQQLPQQAQIQAKVNLYQSLSAEISKESQQ
soluble fraction (log2): 0.1

HMTQTDINQIETLVHEGNKLAAVKLLMDTAHIGLKEAKDIIDNFFLGKQTDLQAAVAQVQTR
soluble fraction (log2): 0.902

HMTRHIQVNDSIASTPIEDVYFSTRTYNALLNNGISVIGDLSKYTHDDLYASFQGLGRAGVLEIEAYLRQD
soluble fraction (log2): -1.43

HMTRHSSVDFAGYILRNKENEPIFGFGKHKGKTVVEVLQREQGYFGWLMEADFPLYTKKVLTAIRLNTLNS
soluble fraction (log2): -0.261

HMTRLDLQNAFRVLPPEIQPAAVLFFLQERKQREIAKILGIGLPLVKYRIRKARELLAQFLRKEA
soluble fraction (log2): -0.225

HMTRNEFLTALRGRLSALPKEEQDAALKYYEEYFDEAESEEDAARQLGSPDSIAEKILADYA
soluble fraction (log2): 0.418

HMTRQNTAVQQSDMAHHKASELTEGMSIVHSHFGRGTIISIETADDPRVTVDFSSEGRKTMLLRFAKFAIE
soluble fraction (log2): -0.941

HMTRQRQLIYNIIQRADDHPTAEMIYARAKAEMPSIAFGTVYRNLKLMVDAGEILHIPVAGEPDRYDK
soluble fraction (log2): -1.96

HMTRVANIPYSEFLKLVETDKINDVSMVGKTISGHLDDGTKFSTYTPPNDPNLIDKLSKHNVIIKAGPE
soluble fraction (log2): -0.000643

HMTRVDKLQTWLSLPREQRDWDEGALMLLQLTGNKIMYRNLSVNPEGKANFIEGKLQQYLEFRLA
soluble fraction (log2): -1.25

HMTSAHEKAFDLFDGGKLSEKALLIAVGAERSGFELAGDLRLRTLTAFEDGRLSEDAMIKLL
soluble fraction (log2): -0.299

HMTSAIAEGTVIRLTQSTNIRESMSEDAPKVATAFSGEKVTVIMSYAEGWTKVTYGDKTGYIKTELL
soluble fraction (log2): -1.1

HMTSAPHHIAAVLRDAIYRGVLEEGGPLHQARIAQSLGVSPIPLREALRLLETEGLVEFRGYRGAFVT
soluble fraction (log2): -0.557

HMTSDADSLRDKTGYVAEQVTSKGGKVNLYDGGFDSLYSARSTGETISTGTEIRVVDPGGGNMLVVEPV
soluble fraction (log2): 0.948

HMTSDYEPSEKDEKAVIGIAFLRNTDVYDVDIDKAEAIKALKANNDIYQKFVKFFPFVKLPSLYDDFQ
soluble fraction (log2): 0.251

HMTSGPAWPALSAQQRSVLAPLQRDWHTIDAARKAKWLEVAARFPSMPAEERQRVQERMAEWA
soluble fraction (log2): -0.0911

HMTSKIIIGDSYSKINKLLGEPENMKKRKFLDNEYLMVLYSINKKNYRLYFKDNILFELEDI
soluble fraction (log2): -0.991

HMTSLQDLLEELRVIRETLTGSQVLSDMQLFSQLRNLGDIKAALTRMQDNPAAARMVGEVDKLLETMFAS
soluble fraction (log2): -1.97

HMTSLSYINDLVTGATAQGLYRIVVPNQFMDDNMANVLRRTYGYQVQSRTSLMGTFDDYIISWAPPM
soluble fraction (log2): -2.9

HMTSMTHLGRHPDSEISLDDISVSRRHAEIERQGHEYVLRDSGSLNGTYVNQQRVDSVVLQQGDEIL
soluble fraction (log2): 0.48

HMTSPLQIHPNPATKHIELGLESPEVVLIKDINGKTVYQELVAPNQYIDIEHLKNGIYFIESKNKFGKLIK
soluble fraction (log2): 0.0829

HMTSPNPLIRSTTPGLETNKKGGIIVDENEMSTRENVFAGGDAVTGAATVILAMGAGKKAAAAIDAKLQN
soluble fraction (log2): 0.461

HMTSPQGIERFLASGVIEGVGKAMAARIVAVFGGQTLEIIEKQPHRLREVRGIGVKTAEKIHASYQEKA
soluble fraction (log2): -0.841

HMTSPVEDLLDKAIQLYREENFEEAIAKWEEVLALDPSKLEAKFNIEIAQDRIKEKQIQEDLKSS
soluble fraction (log2): 0.341

HMTSQVTVHVVGAVEKPGVVTLDAPSRVQDALEAAGGALPEAELSGVNLARELFDGEQIVVPAQGEDV
soluble fraction (log2): 0.342

HMTSSVIIPKLIGKTEEEAKVALAGLNVQVLYETHGDQANGIVIKQSFEEGTKVIKGVSIVITVNKVS
soluble fraction (log2): -1.91

HMTSTEQEILIEHMVDRLPALRKKYGISQTELGEKIGLSRQTISAIERKTTPLTWTTMLAILMFFT
soluble fraction (log2): -1.82

HMTSTSVKYVNSSSGLNVRKGPSTSYDKVTTLVNGTKVTVISTNNGWSKITSGSITGYVSSQYLSSSS
soluble fraction (log2): -1.27

HMTSVAYVIDRINKIQNVYSELEALGLKDEFEKILSNIEDLSKKDIREIKTLLKTKGVIKNLDDLNVKL
soluble fraction (log2): 0.762

HMTSVQDLLRNGDRVGYQNGSTVKYWLEEMGFHKKDLLGYVTVEEYAEALQRGSGNGGVSAIVD
soluble fraction (log2): -0.811
